Experiment: yeast display, Sf9 membrane polyspecificity reagent, FACS + sequencing; frameworks hold sequencing errors
How it was run: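 Genes from sorted yeast were amplified by colony PCR, read by MiSeq 2 × 250 sequencing and filtered on CDR length. These cells carried a synthetic nanobody library in Saccharomyces cerevisiae BJ5465 and were sorted by FACS into low and high (top ~1%) gates on anti-HA and streptavidin fluorescence. Polyreactivity is labelled according to the gate of origin.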

| Sequence | polyreactivity (PSR sort gate) |
| --- | --- |
| QVQLVESGGGLVQAGGSLRLSCAASGSTFQGNAMGWYRHAPGKERELVAAISRSGGSTYADSVKGRFTISRDNAKNTVYLQINSLKPEDTAVYYCAAYSGVGYLWFDYWGQGTQVTVSS | low polyreactivity |
| QVQLVESGGGLVQAGGSLRLSCAASGSTFQGNAMGWYRQAPGKERELVAAISRSGGSTYADSVKGRFTMSRDNAKNTVYLQMNSLKPEDTAVYYCAAYSGVGYLWFDYWGQGTQVTVSS | low polyreactivity |
| QVQLVESGGGLVQAGGSLRLSCAASGSTFQGYALRWYRQAPGKERELVAAITKRSGRTYYADSVKGRFTISRDNAKNTVYLQMNSLKPEDTAVYYCAKVTSYSEYDYWGQGTQVTVSS | high polyreactivity |
| QVQLVESGGGLVQAGGSLRLSCAASGSTFQINAMGWYRQAPGKERELVARNSGSGSRTYYADSVKGRFTISRYNAKNTVSLQMNSLKPEDTAVYYCAARGTGKGYDSWGQGTQVTVSS | high polyreactivity |
| QVQLVESGGGLVQAGGSLRLSCAASGSTFQIYAMGWYRQAPGKETELVAAITSSSSTNYADSVKGRFTISRDNAKNTVYLQMNSLKPEDTAVYYCAADVSWRSNWYDYWGQGTQGTVSS | low polyreactivity |
| QVQLVESGGGLVQAGGSLRLSCAASGSTFQKNVMGWYRQAPGKERELVAAITSVGSTNYADSVKGRFTISRDNAKNTVYLQMNSLKPEDTAVYYCAKDQVPYYYVFGVYDYDYWGQGTQVTVSS | low polyreactivity |
| QVQLVESGGGLVQAGGSLRLSCAASGSTFQLYAMGWDRQAPGKERELVAAITSSAGRTYYADSVKGRFTISRDNAKNTVYLQMNSLKPEDTAVYYCAKDGSFTFWGQGTQVTVSS | low polyreactivity |
| QVQLVESGGGLVQAGGSLRLSCAASGSTFQNNPMGSYRQAPGKERELVATISRRGGSTYYADSVKGRFTISRDNAKNTVYLQMNRLKPEDTAVYYCAAQAPNYAHRYYYWGQGTQVTVSS | high polyreactivity |
| QVQLVESGGGLVQAGGSLRLSCAASGSTFQQYGMGWYRQAPGKERELVAAITFSDGNTYYADSVKGRFTISRDNAKNTVYLQMNSLKREDTAVYYCNAGYSYGVSYAEGGYWGQGTQVTVSS | low polyreactivity |
| QVQLVESGGGLVQAGGSLRLSCAASGSTFQRNAMGWYRQAPGKERELVAVITRRGASTYYADSVKGRFTISRDNAKNTVYLQMKSLKPEDTAVYYCNKVPYGRDHHLLFDYWGQGTQVTVSS | high polyreactivity |
| QVQLVESGGGLVQAGGSLRLSCAASGSTFQRYAMGWSRQAPGKERELVAAIDTVGSTNYADSVKGRFTISRDNAKNTVYLQMNSLKPEDTAVYYCAVVTPYWSFYEQVIPSNYWGQGTQVTVSS | low polyreactivity |
| QVQLVESGGGLVQAGGSLRLSCAASGSTFQSNAMGWYRQAPGKERELVAAITVSAGSTYYADSVKGRFTISRDNAKNTVYLQMNSLKPEDTAVYFCAANRYVYPSYRFDYWGQGTQVTVSS | low polyreactivity |
| QVQLVESGGGLVQAGGSLRLSCAASGSTFQSYAMGWYRPAPGKERELVATITWSSGRTYYADSVKGRFTISRDNAKNTVYLQMKSLKPEDTAVYYCAARKRPFYKYDYWGQGTQVTVSS | high polyreactivity |
| QVQLVESGGGLVQAGGSLRLSCAASGSTFQSYTMGWYRQAPGKERELVATITSTSSTSYADSVKGRFTISRDNAKNTVYLQMNSLKPEDTAVYYCNAEGLHWGQGTQVTVSS | low polyreactivity |
| QVQLVESGGGLVQAGGSLRLSCAASGSTFQTYAMGSYRPAPGKERELVAAISKTGASTYYADSVKGRFTISRDNAKNTVNLQMNSLKPEDTAVYYCAAGRYTSYYPRYYYWGQGTQVTVSS | high polyreactivity |
| QVQLVESGGGLVQAGGSLRLSCAASGSTFQTYARGWYRQAPGKERELVASIDYSGGSTYYADSVKGRFTISRDNAKNTVYLQMNSLKPEDTAVYYCAKALSQTWYDGQYGYWGQGTQVTVSS | low polyreactivity |
| QVQLVESGGGLVQAGGSLRLSCAASGSTFQVYAMGWYRQAPGKERELVAAISNGGRTNYADSVKGRFTISRDNAKNTVYLQMNSLKPEDTAVYYCNADQVWWSFDRVLVGYEYWGQGTQVTVSS | low polyreactivity |

— the nanobody polyreactivity screen of Harvey et al. (2022)
